Test results taken from US20220098315A1 (Novartis, published 2022).

What was measured:
[1] = target: recombinant human CD40 (human) (UniProt P25942); test: SPR (Biacore T100), antibody captured on Protein A, CD40 antigen as analyte, 25 C, 1:1 model
[2] = target: human CD40 on cells (human, UniProt P25942 21-277); test: cell-based or functional assay
Chain of human CD40 on cells (P25942 21-277 limits assumed): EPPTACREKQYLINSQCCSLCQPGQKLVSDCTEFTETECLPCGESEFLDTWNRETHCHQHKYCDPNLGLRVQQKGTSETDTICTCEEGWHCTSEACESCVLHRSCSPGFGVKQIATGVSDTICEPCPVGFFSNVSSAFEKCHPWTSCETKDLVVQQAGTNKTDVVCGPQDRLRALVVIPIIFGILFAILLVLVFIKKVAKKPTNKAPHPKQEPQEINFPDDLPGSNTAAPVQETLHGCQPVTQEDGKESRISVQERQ

Chain of recombinant human CD40 (human) (P25942 21-193 limits assumed): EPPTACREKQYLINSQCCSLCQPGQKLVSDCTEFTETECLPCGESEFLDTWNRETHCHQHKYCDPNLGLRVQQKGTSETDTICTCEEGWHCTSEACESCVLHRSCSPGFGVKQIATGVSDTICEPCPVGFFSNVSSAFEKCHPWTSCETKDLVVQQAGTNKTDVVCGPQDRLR

Kd [1] [nM] | koff [1] [s⁻¹] | kon [1] [M⁻¹ s⁻¹] | IC50, rCD154-induced proliferation of human PBMCs [2] [nM] | Molecule
0.467 | 0.000126 | 284000 | – | HCD122 (antibody)
– | – | – | 0.12 | CFZ533 (antibody, human IgG1, kappa, N297A, V domains shown) VH: QVQLVESGGGVVQPGRSLRLSCAASGFTFSSYGMHWVRQAPGKGLEWVAVISYEESNRYHADSVKGRFTISRDNSKITLYLQMNSLRTEDTAVYYCARDGGIAAPGPDYWGQGTLVTVSS VL: DIVMTQSPLSLTVTPGEPASISCRSSQSLLYSNGYNYLDWYLQKPGQSPQVLISLGSNRASGVPDRFSGSGSGTDFTLKISRVEAEDVGVYYCMQARQTPFTFGPGTKVDIRR
